In US20250092373A1, “CRISPR-MEDIATED DELETION OF FLI1 IN NK CELLS” (The Regents of the University of California, priority 2022, published 2025):

B1: IL-2: mouse IL-2 cytokine used to stimulate splenic NK cells (protein, UniProt P04351 21-169, looked up)
Interleukin-2: APTSSSTSSSTAEAQQQQQQQQQQQQHLEQLLMDLQELLSRMENYRNLKLPRMLTFKFYLPKQATELKDLQCLEDELGPLRHVLDLTQSKSFQLEDAENFISNIRVTVVKLKGSDNTFECQFDDESATVVDFLRRWIAFCQSIISTSPQ
B2: IL-12: cytokine used to stimulate NK cells ex vivo (protein, UniProt P29459 23-219; P29460 23-328, looked up)
Interleukin-12 subunit alpha: RNLPVATPDPGMFPCLHHSQNLLRAVSNMLQKARQTLEFYPCTSEEIDHEDITKDKTSTVEACLPLELTKNESCLNSRETSFITNGSCLASRKTSFMMALCLSSIYEDLKMYQVEFKTMNAKLLMDPKRQIFLDQNMLAVIDELMQALNFNSETVPQKSSLEEPDFYKTKIKLCILLHAFRIRAVTIDRVMSYLNAS
Interleukin-12 subunit beta: IWELKKDVYVVELDWYPDAPGEMVVLTCDTPEEDGITWTLDQSSEVLGSGKTLTIQVKEFGDAGQYTCHKGGEVLSHSLLLLHKKEDGIWSTDILKDQKEPKNKTFLRCEAKNYSGRFTCWWLTTISTDLTFSVKSSRGSSDPQGVTCGAATLSAERVRGDNKEYEYSVECQEDSACPAAEESLPIEVMVDAVHKLKYENYTSSFFIRDIIKPDPPKNLQLKPLKNSRQVEVSWEYPDTWSTPHSYFSLTFCVQVQGKSKREKKDRVFTDKTSATVICRKNASISVRAQDRYYSSSWSEWASVPCS
B3: IL-15: mouse IL-15 cytokine used to stimulate splenic NK cells (protein, UniProt P48346 49-162, looked up)
Interleukin-15: NWIDVRYDLEKIESLIQSIHIDTTLYTDSDFHPSCKVTAMNCFLLELQVILHEYSNMTLNETVRNVLYLANSTLSSNKNVAESGCKECEELEEKTFTEFLQSFIRIVQMFINTS

Key:
[1] = system: STAT5; experiment: Fli1 protein by western blot in IL-15-stimulated splenic NK cells with STAT5 inhibitor or vehicle; type: cell-based, mouse; conditions: 100 μM inhibitor vs vehicle control (DMSO)
Method: (§1) For plate-bound antibody stimulation experiments, ˜5×10^5 isolated NK cells were stimulated with […] precoated antibody against NK1.1 (PK136) for 4 hours in complete media containing Brefeldin A (1:1000; BioLegend) and Monensin (2 uM; BioLegend). Cells were cultured in media alone as a negative control. In cytokine stimulation experiments, isolated NK cells were incubated with various concentrations of mouse IL-15 or IL-2, in the presence or absence of 100 μM CAS 285986-31-4 STAT5 inhibitor (Millipore Sigma).
(§2) Protein was extracted from enriched primary splenic NK cells using Pierce RIPA buffer (Thermo-Fisher) with Halt protease inhibitor cocktail (Thermo-Fisher) and protein concentration was quantified using the Pierce BCA Protein Assay kit (Thermo-Fisher). Samples were electrophoresed on NuPage Novex 4-12% Bis-Tris Protein Gels, transferred to PVDF membranes, and blocked for one hour at room temperature with 5% w/v nonfat milk in 1× TBS and 0.1% Tween-20. Immunoblots were performed using rabbit anti-Fli1 (Abcam ab133485), rabbit anti-β-actin (Cell Signaling CST4970), and rabbit anti-GAPDH (Millipore Sigma G9545). Proteins were detected using the SuperSignal West Pico PLUS ECL kit (Thermo-Fisher) and visualized using the Azure Biosystems c280 imager. Band density was quantified using ImageJ version 1.53.

[2] = system: splenic NK cells; conditions: 3 hours after cytokine stimulation ex vivo; published RNA-seq datasets (GSE140044); cited from earlier work
[3] = system: splenic NK cells; experiment: Fli1 protein by immunoblot of purified splenic NK cells cultured with IL-2 or IL-15; type: cell-based, mouse; conditions: for Fli1 protein induction: 48 h culture with increasing doses of cytokine
Method: as §1, §2

Molecule	reduction of Fli1 protein [1] [%]	Fli1 transcripts [2]	Fli1 protein induction [3]	Fli1 protein induced, IL-15 compared with IL-2 ([3]; 48 h culture, at each dose)
O=C(N/N=C/c1coc2ccccc2c1=O)c1cccnc1 [STAT5 inhibitor]	~50	–	–	–
IL-18: cytokine used to stimulate NK cells ex vivo	–	decreased Fli1 expression	–	–
B1	–	induced Fli1 transcripts	induced by both IL-2 and IL-15 in a dose-dependent manner	–
B2	–	decreased Fli1 expression	–	–
B3	–	induced Fli1 transcripts	induced by both IL-2 and IL-15 in a dose-dependent manner	more Fli1 protein than IL-2 at each dose
